B1: ProMAN3 P4 probe (dsDNA)
DNA 1: AGTTAGTCAATGAACGGTTTTCAAATAAAG
DNA 2: CTTTATTTGAAAACCGTTCATTGACTAACT
B2: ProMAN3 P3 probe (dsDNA)
DNA 1: CAAATCATATAGTTTGGTGACTGATTTCAA
DNA 2: TTGAAATCAGTCACCAAACTATATGATTTG
B3: ProMAN3 P2 probe (dsDNA)
DNA 1: AAGATGGGTTTGCTTGGTGAGACCACAAGA
DNA 2: TCTTGTGGTCTCACCAAGCAAACCCATCTT
B4: ProMAN3 P1 probe (dsDNA)
DNA 1: GGTTTACAAATCAACAACCACTGAACTTTT
DNA 2: AAAAGTTCAGTGGTTGTTGATTTGTAAACC

biological target: MYB4-MBP (Arabidopsis thaliana, UniProt Q9SZP1 1-282); test: EMSA; LightShift Chemiluminescent EMSA Kit (Thermo), manufacturer's protocol; buffer, salt, pH and temperature not stated; conditions: protein: recombinant; tags: MBP; label: 3' biotin on sense strand; blunt
Sequence (Q9SZP1 whole entry): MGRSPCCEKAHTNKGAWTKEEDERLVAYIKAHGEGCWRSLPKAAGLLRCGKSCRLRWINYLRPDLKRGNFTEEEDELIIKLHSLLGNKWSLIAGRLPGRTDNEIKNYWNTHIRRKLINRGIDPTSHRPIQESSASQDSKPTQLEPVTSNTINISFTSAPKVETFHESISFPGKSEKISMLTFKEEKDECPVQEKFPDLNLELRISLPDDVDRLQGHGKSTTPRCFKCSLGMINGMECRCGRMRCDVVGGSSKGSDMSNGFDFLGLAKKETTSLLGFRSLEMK

Binding result, binds:
B1
B2
B3
B4

From publication PMC8270467, “A MYB4-MAN3-Mannose-MNB1 signaling cascade regulates cadmium tolerance in Arabidopsis”
